Source: IntAct's records for PubMed 22252508

B1: Actin nucleation-promoting factor WAS (Homo sapiens), P42768 (parent)
chain: MSGGPMGGRPGGRGAPAVQQNIPSTLLQDHENQRLFEMLGRKCLTLATAVVQLYLALPPGAEHWTKEHCGAVCFVKDNPQKSYFIRLYGLQAGRLLWEQELYSQLVYSTPTPFFHTFAGDDCQAGLNFADEDEAQAFRALVQEKIQKRNQRQSGDRRQLPPPPTPANEERRGGLPPLPLHPGGDQGGPPVGPLSLGLATVDIQNPDITSSRYRGLPAPGPSPADKKRSGKKKISKADIGAPSGFKHVSHVGWDPQNGFDVNNLDPDLRSLFSRAGISEAQLTDAETSKLIYDFIEDQGGLEAVRQEMRRQEPLPPPPPPSRGGNQLPRPPIVGGNKGRSGPLPPVPLGIAPPPPTPRGPPPPGRGGPPPPPPPATGRSGPLPPPPPGAGGPPMPPPPPPPPPPPSSGNGPAPPPLPPALVPAGGLAPGGGRGALLDQIRQGIQLNKTPGAPESSALQPPPQSSEGLVGALMHVMQKRSRAIHSSDEGEDQAGDEDEDDEWDD
B2: Tumor protein 63 (Homo sapiens), Q9H3D4 (parent)
chain: MNFETSRCATLQYCPDPYIQRFVETPAHFSWKESYYRSTMSQSTQTNEFLSPEVFQHIWDFLEQPICSVQPIDLNFVDEPSEDGATNKIEISMDCIRMQDSDLSDPMWPQYTNLGLLNSMDQQIQNGSSSTSPYNTDHAQNSVTAPSPYAQPSSTFDALSPSPAIPSNTDYPGPHSFDVSFQQSSTAKSATWTYSTELKKLYCQIAKTCPIQIKVMTPPPQGAVIRAMPVYKKAEHVTEVVKRCPNHELSREFNEGQIAPPSHLIRVEGNSHAQYVEDPITGRQSVLVPYEPPQVGTEFTTVLYNFMCNSSCVGGMNRRPILIIVTLETRDGQVLGRRCFEARICACPGRDRKADEDSIRKQQVSDSTKNGDGTKRPFRQNTHGIQMTSIKKRRSPDDELLYLPVRGRETYEMLLKIKESLELMQYLPQHTIETYRQQQQQQHQHLLQKQTSIQSPSSYGNSSPPLNKMNSMNKLPSVSQLINPQQRNALTPTTIPDGMGANIPMMGTHMPMAGDMNGLSPTQALPPPLSMPSTSHCTPPPPYPTDCSIVSFLARLGCSSCLDYFTTQGLTTIYQIEHYSMDDLASLKIPEQFRHAIWKGILDHRQLHEFSSPSHLLRTPSSASTVSVGSSETRGERVIDAVRFTLRQTISFPPRDEWNDFNFDMDARRNKQQRIKEEGE
partner: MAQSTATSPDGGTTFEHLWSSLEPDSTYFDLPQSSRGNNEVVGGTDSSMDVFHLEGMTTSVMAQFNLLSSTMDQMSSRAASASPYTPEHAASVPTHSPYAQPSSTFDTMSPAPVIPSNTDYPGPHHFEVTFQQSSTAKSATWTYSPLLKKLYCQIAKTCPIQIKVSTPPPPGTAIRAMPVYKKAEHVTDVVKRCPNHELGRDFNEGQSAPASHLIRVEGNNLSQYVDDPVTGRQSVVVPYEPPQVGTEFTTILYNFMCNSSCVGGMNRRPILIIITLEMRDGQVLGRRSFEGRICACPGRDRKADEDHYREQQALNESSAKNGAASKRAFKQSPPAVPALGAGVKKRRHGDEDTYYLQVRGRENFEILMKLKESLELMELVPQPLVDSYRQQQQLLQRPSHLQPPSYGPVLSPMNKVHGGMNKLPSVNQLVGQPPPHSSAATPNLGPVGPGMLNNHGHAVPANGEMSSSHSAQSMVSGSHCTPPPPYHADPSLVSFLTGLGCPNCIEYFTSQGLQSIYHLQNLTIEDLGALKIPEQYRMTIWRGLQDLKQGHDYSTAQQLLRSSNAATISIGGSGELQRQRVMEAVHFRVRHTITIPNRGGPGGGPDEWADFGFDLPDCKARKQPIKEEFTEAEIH
B3: DNA mismatch repair protein Mlh1 (Homo sapiens), P40692 (parent)
chain: MSFVAGVIRRLDETVVNRIAAGEVIQRPANAIKEMIENCLDAKSTSIQVIVKEGGLKLIQIQDNGTGIRKEDLDIVCERFTTSKLQSFEDLASISTYGFRGEALASISHVAHVTITTKTADGKCAYRASYSDGKLKAPPKPCAGNQGTQITVEDLFYNIATRRKALKNPSEEYGKILEVVGRYSVHNAGISFSVKKQGETVADVRTLPNASTVDNIRSIFGNAVSRELIEIGCEDKTLAFKMNGYISNANYSVKKCIFLLFINHRLVESTSLRKAIETVYAAYLPKNTHPFLYLSLEISPQNVDVNVHPTKHEVHFLHEESILERVQQHIESKLLGSNSSRMYFTQTLLPGLAGPSGEMVKSTTSLTSSSTSGSSDKVYAHQMVRTDSREQKLDAFLQPLSKPLSSQPQAIVTEDKTDISSGRARQQDEEMLELPAPAEVAAKNQSLEGDTTKGTSEMSEKRGPTSSNPRKRHREDSDVEMVEDDSRKEMTAACTPRRRIINLTSVLSLQEEINEQGHEVLREMLHNHSFVGCVNPQWALAQHQTKLYLLNTTKLSEELFYQILIYDFANFGVLRLSEPAPLFDLAMLALDSPESGWTEEDGPKEGLAEYIVEFLKKKAEMLADYFSLEIDEEGNLIGLPLLIDNYVPPLEGLPIFILRLATEVNWDEEKECFESLSKECAMFYSIRKQYISEESTLSGQQSEVPGSIPNSWKWTVEHIVYKALRSHILPPKHFTEDGNILQLANLPDLYKVFERC
partner: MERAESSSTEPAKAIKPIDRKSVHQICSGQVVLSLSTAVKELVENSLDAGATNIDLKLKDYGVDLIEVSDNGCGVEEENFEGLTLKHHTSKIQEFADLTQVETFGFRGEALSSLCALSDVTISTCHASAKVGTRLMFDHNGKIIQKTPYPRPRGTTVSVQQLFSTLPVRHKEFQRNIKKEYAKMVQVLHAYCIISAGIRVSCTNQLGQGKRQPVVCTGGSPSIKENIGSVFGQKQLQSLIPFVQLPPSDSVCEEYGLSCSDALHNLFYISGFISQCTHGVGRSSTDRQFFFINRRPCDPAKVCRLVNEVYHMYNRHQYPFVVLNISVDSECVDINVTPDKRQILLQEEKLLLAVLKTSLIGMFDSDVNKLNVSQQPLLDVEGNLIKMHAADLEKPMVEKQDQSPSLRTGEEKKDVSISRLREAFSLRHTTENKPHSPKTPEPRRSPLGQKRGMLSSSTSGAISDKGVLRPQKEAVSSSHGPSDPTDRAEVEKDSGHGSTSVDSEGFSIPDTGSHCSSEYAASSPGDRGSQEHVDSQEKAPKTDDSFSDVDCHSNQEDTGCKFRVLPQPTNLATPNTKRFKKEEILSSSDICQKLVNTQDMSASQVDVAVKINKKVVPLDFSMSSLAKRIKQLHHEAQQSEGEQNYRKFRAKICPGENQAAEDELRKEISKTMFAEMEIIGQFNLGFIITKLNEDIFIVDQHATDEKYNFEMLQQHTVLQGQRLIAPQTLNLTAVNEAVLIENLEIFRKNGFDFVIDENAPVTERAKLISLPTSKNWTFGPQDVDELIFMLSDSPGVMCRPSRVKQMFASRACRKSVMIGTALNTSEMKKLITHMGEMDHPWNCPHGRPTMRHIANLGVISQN

Variants of: B1
Conditions: with cdc42_human CDC42, P60953
Chain of cdc42_human CDC42, P60953 (P60953 whole entry, looked up): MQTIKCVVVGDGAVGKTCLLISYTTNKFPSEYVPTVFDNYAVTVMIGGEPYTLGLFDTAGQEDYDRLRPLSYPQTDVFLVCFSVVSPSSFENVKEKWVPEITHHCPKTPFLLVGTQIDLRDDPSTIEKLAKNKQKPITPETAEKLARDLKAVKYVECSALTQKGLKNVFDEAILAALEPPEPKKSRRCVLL

**Q.** With E131K as the variant, how does the “effect of a mutation on the interaction” value read?
**A.** Its value is “with no effect”.

**Q.** I294T was tested. Which “effect of a mutation on the interaction” value did it give?
**A.** The value was “decreasing interaction strength”.

**Q.** For R41G, which “effect of a mutation on the interaction” value is on record?
**A.** The value was “with no effect”.

Variants of: B2
Conditions: with p73_human TP73, O15350

**Q.** How did the “effect of a mutation on the interaction” value turn out when F565L was run?
**A.** Its value is “decreasing interaction strength”.

**Q.** For S580P, which “effect of a mutation on the interaction” value is on record?
**A.** The value was “decreasing interaction strength”.

**Q.** I549T was tested. Which “effect of a mutation on the interaction” value did it give?
**A.** Its value is “decreasing interaction strength”.

**Q.** How did the “effect of a mutation on the interaction” value turn out when R594P was run?
**A.** Its value is “decreasing interaction strength”.

Variants of: B3
Conditions: with pms2_human PMS2, P54278

**Q.** Which “effect of a mutation on the interaction” value does the source give for Q149H here?
**A.** The value was “with no effect”.

**Q.** For H381Y, which “effect of a mutation on the interaction” value is on record?
**A.** The value was “with no effect”.

**Q.** L259S was tested. Which “effect of a mutation on the interaction” value did it give?
**A.** Its value is “with no effect”.

**Q.** For N338S, which “effect of a mutation on the interaction” value is on record?
**A.** The value was “with no effect”.

**Q.** I107R was tested. Which “effect of a mutation on the interaction” value did it give?
**A.** Its value is “disrupting interaction strength”.

**Q.** With I68N as the variant, how does the “effect of a mutation on the interaction” value read?
**A.** The value was “disrupting interaction strength”.

**Q.** Which “effect of a mutation on the interaction” value does the source give for Y293D here?
**A.** The value was “disrupting interaction strength”.
